Here are results for one molecule from patent US10011641B2.

Non-standard residues stand in square brackets, D forms with d. No end group written: not given here. Z06677 = not defined here

Test [1] concerns the target PEP06548 (Artificial sequence). The test is described as follows: affinity purification on anti-ABD agarose with about 2.3 mg ligand per ml resin, absorbance measurement.
Test [2] concerns the target PEP17081 (Artificial sequence). Put plainly: affinity purification on anti-ABD agarose, spectrophotometric analysis of the eluted pool.

The molecule GSSLQ[Z06677][Z06677]VDC (designed binder, reading uncertain; also: printed as GSSLQ-[Z06677][Z06677]-VDC) [(Z06677)2-Cys] returned a purified protein obtained per ml of resin (mg per ml of resin) in test [1] of 3.7. This molecule also returned a sample molecules per ligand in test [1] (scale: PEP06548 molecule per) of 1. This molecule gave a binding capacity (mg PEP17081 per ml resin) in test [2] of 13.
